Key:
[1] = molecular target: T1, DYRK1A (recombinant, N-terminally biotinylated) (UniProt Q13627 1-763, biotin on the N-terminus (sortase labelling with a synthetic biotin-LPETGG peptide onto the N-terminal glycine left after TEV cleavage)); test: BLI
[2] = molecular target: T1, DYRK1A (recombinant, N-terminally …); test: BLI; steady-state response analysis

- koff [1]: 0.04 s⁻¹
- Kd [2]: 3.3 µM
B1: FAM53C (recombinant) (natural protein)
chain: MITLITEQLQKQTLDELKCTRFSISLPLPDHADISNCGNSFQLVSEGASWRGLPHCSCAEFQDSLNFSYHPSGLSLHLRPPSRGNSPKEQPFSQVLRPEPPDPEKLPVPPAPPSKRHCRSLSVPVDLSRWQPVWRPAPSKLWTPIKHRGSGGGGGPQVPHQSPPKRVSSLRFLQAPSASSQCAPAHRPYSPPFFSLALAQDSSRPCAASPQSGSWESDAESLSPCPPQRRFSLSPSLGPQASRFLPSARSSPASSPELPWRPRGLRNLPRSRSQPCDLDARKTGVKRRHEEDPRRLRPSLDFDKMNQKPYSGGLCLQETAREGSSISPPWFMACSPPPLSASCSPTGGSSQVLSESEEEEEGAVRWGRQALSKRTLCQRDFGDLDLNLIEEN

Source: publication PMC13132546 (2026)
